# Paper PMC11097083 (Molecular & Cellular Proteomics : MCP, 2024)
# Numbering of substitutions follows the chain as printed. Names may count otherwise.
# B1: galectin-4 (Gal-4), full-length (natural protein, human, UniProt P56470 1-323, looked up)
# chain: MAYVPAPGYQPTYNPTLPYYQPIPGGLNVGMSVYIQGVASEHMKRFFVNFVVGQDPGSDVAFHFNPRFDGWDKVVFNTLQGGKWGSEERKRSMPFKKGAAFELVFIVLAEHYKVVVNGNPFYEYGHRLPLQMVTHLQVDGDLQLQSINFIGGQPLRPQGPPMMPPYPGPGHCHQQLNSLPTMEGPPTFNPPVPYFGRLQGGLTARRTIIIKGYVPPTGKSFAINFKVGSSGDIALHINPRMGNGTVVRNSLLNGSWGSEEKKITHNPFGPGQFFDLSIRCGLDRFKVYANGQHLFDFAHRLSAFQRVDTLEIQGDVTLSYVQI
# B2: Gal-4NM (R67H), N-terminal domain mutant of full-length Gal-4 (natural protein, human, UniProt P56470 1-323, looked up)
# chain: B1 chain with R67H
# B3: Gal-4CM (R240H), C-terminal domain mutant of full-length Gal-4 (natural protein, human, UniProt P56470 1-323, looked up)
# chain: B1 chain with R240H
# Columns and labels:
# [1] = biological target: galectin-4 C-terminal carbohydrate recognition domain (Gal-4C) (human); assay: cross-linking
# [2] = biological target: galectin-4 C-terminal carbohydrate recognition domain (Gal-4C) (human); assay: AUC
# cross-linking = biological target: the molecule itself; assay: cross-linking
molecule,measurement,setting,value
galectin-4 C-terminal carbohydrate recognition domain (Gal-4C) (domain or fragment),stoichiometry N,[1],2
same,stoichiometry N,[2],2
B1,stoichiometry N,cross-linking,2
B2,stoichiometry N,cross-linking,2
B3,stoichiometry N,cross-linking,2
